{"source": "paper PMC5045929", "about": "“Norovirus-Specific Memory T Cell Responses in Adult Human Donors” (Frontiers in Microbiology, 2016)", "proteins": {"B1": {"name": "Norovirus GII.4 Sydney capsid protein VP1 (virus-like particles) (natural protein)", "chain": "MKMASSDANPSDGSAANLVPEVNNEVMALEPVVGAAIAAPVAGQQNVIDPWIRNNFVQAPGGEFTVSPRNAPGEILWSAPLGPDLNPYLSHLARMYNGYAGGFEVQVILAGNAFTAGKVIFAAVPPNFPTEGLSPSQVTMFPHIVVDVRQLEPVLIPLPDVRNNFYHYNQSNDPTIKLIAMLYTPLRANNAGDDVFTVSCRVLTRPSPDFDFIFLVPPTVESRTKPFSVPVLTVEEMTNSRFPIPLEKLFTGPSSAFVVQPQNGRCTTDGVLLGTTQLSPVNICTFRGDVTHITGSRNYTMNLASQNWNDYDPTEEIPAPLGTPDFVGKIQGVLTQTTRTDGSTRGHKATVYTGSADFAPKLGRVQFETDTDRDFEANQNTKFTPVGVIQDGGTTHRNEPQQWVLPSYSGRNTHNVHLAPAVAPTFPGEQLLFFRSTMPGCSGYPNMDLDCLLPQEWVQYFYQEAAPAQSDVALLRFVNPDTGRVLFECKLHKSGYVTVAHTGQHDLVIPPNGYFRFDSWVNQFYTLAPMGNGTGRRRAV", "notes": "The VP1 gene was cloned; also called GII.4 SYD VLP; GII.4-2012 (Sydney); source: Sf9 insect cells (baculovirus, pFastBac1), purified by two discontinuous sucrose gradient ultracentrifugations"}}, "target": "the molecule itself", "assay": "negative-stain electron microscopy; sucrose gradient-purified VLPs from baculovirus-infected Sf9 cells, negatively stained with 3% uranyl acetate (pH 4.5), 23,000x"}
{"protein": "B1", "values": [{"measurement": "binding result", "result": "binds"}]}
